Laboratory results: patent US20260234290A1, “Antibodies to Stat3 Decoy Oligonucleotide” (The Regents of the University of California, priority 2023, published 2026)

Tested on: CS3D
Assay: BLI koff of purified Fabs from CS3D biopanning
Assay type: binding
Description: First, standard biopanning (FIG. 1) was performed with Ag immobilized magnetic beads. A total of six rounds were performed with increasing stringency of washes and decreasing amounts of Ag per round. Assuming strong enrichment occurred continuously throughout the campaign, 95 colonies were randomly picked each round 4-6 (285 clones total) for candidate hit screening.
In efforts to identify improved binders, BIAS was performed with identical clones picked previously that were randomly sequenced. […] Therefore, we hypothesized that strong growth/display propensity biases were a dominant factor during the campaign, leading primarily to the identification of low-affinity binders.
Fluorescent activated sorting was applied to round 4 as both the population percentage and the normalized MFI of the shoulder population are the highest (FIG. 7). The shoulder population (top ~4%) was sorted along with the majority population (bottom ~96%) and both populations were used to infect TG1 (E. coli) cells. […] BIAS hits of the top ~4% sorted population were sequenced, and a new candidate binder, SP1-B3, was identified, along with identical clones of previously identified low-affinity binders.
All buffers were filter sterilized with […] filters prior to preparing samples. Black 384 well microplates were used to set up BLI plates and streptavidin tips were purchased by Sartorius. Kinetic constants of Fabs were determined by Octet RED384 system with continuous shaking at 1000 rpm in RT. Prior to the experiment, biological tips (model name) were presoaked in buffer to allow for equilibration for 1 hour. Data were analyzed using 1:1 interaction model on the ForteBio data analysis software 12.0.
Freshly transformed BL21 (DE3) E. coli single colony clones were picked and inoculated into 50 ml of 2×YT media containing 2% glucose and […] Ampicillin. Starter cultures were grown overnight at 37 °C with 200 rpm shaking. […]

B1: SP1-B3: anti-CS3D Fab from RAPID sorting of round 4; VH SEQ ID NO: 3, VL SEQ ID NO: 4 (antibody, V domains shown)
VH: QVTLQQSGPGLVKPSQTLSLTCAISGDSVSSNSAAWNWIRQSPSRGLEWLGRTYYRSKWFTYYAASVKGRISINRDTSKNQFSLQLNSVTPDDTAVYFCARGSGGYIDHWGQGTLVTVSS
VL: QAVLTQPSSLSASPGASASLTCTLRSGINVDSYRIYWYQQKPGSPPQYLLRYKSDSDKQQGSGVPSRFSGSKDASANAGILLISGLQSEDEADYYCMIWHSSAVVFGGGTKLTVL
- koff fold lower than the Fab with the highest koff: > 20 fold
- koff fold lower than the previously identified Fab with the lowest koff: ~ 3 fold
- koff (measured at 2 μM Fab): 0.0211 s⁻¹
